Assay results reported in patent US20020052480A1.

Tests used:
[1] = molecular target: human fibroblast activation protein alpha (FAP), on the cell surface (HT-1080FAP clone 33, 293FAP I/2, MF-SH cells, tumor stromal fibroblasts) (human) (UniProt Q12884); assay: flow cytometry, MF-SH cells (endogenous FAP), antibody at 4,000 ng/ml
[2] = molecular target: human fibroblast activation protein alpha (FAP), on the cell surface (HT-1080FAP clone 33, 293FAP I/2, MF-SH cells, tumor stromal fibroblasts) (human) (UniProt Q12884); assay: flow cytometry, HT-1080FAP clone 33 cells, antibody at 20 ng/ml, anti-human IgG FITC
[3] = molecular target: human fibroblast activation protein alpha (FAP), on the cell surface (HT-1080FAP clone 33, 293FAP I/2, MF-SH cells, tumor stromal fibroblasts) (human) (UniProt Q12884); assay: flow cytometry, HT-1080FAP clone 33 cells, antibody at 0.8 ng/ml, anti-human IgG FITC
[4] = molecular target: human fibroblast activation protein alpha (FAP), on the cell surface (HT-1080FAP clone 33, 293FAP I/2, MF-SH cells, tumor stromal fibroblasts) (human) (UniProt Q12884); assay: flow cytometry, HT-1080FAP clone 33 cells, antibody at 100 ng/ml, anti-human IgG FITC
[5] = molecular target: human fibroblast activation protein alpha (FAP), on the cell surface (HT-1080FAP clone 33, 293FAP I/2, MF-SH cells, tumor stromal fibroblasts) (human) (UniProt Q12884); assay: flow cytometry, HT-1080FAP clone 33 cells, antibody at 4.0 ng/ml, anti-human IgG FITC
[6] = molecular target: human fibroblast activation protein alpha (FAP), on the cell surface (HT-1080FAP clone 33, 293FAP I/2, MF-SH cells, tumor stromal fibroblasts) (human) (UniProt Q12884); assay: flow cytometry, HT-1080FAP clone 33 cells, antibody at 500 ng/ml, anti-human IgG FITC
[7] = molecular target: human fibroblast activation protein alpha (FAP), on the cell surface (HT-1080FAP clone 33, 293FAP I/2, MF-SH cells, tumor stromal fibroblasts) (human) (UniProt Q12884); assay: flow cytometry, HT-1080FAP clone 33 cells, biotinylated antibody at 1.6 ng/ml, streptavidin-FITC
[8] = molecular target: human fibroblast activation protein alpha (FAP), on the cell surface (HT-1080FAP clone 33, 293FAP I/2, MF-SH cells, tumor stromal fibroblasts) (human) (UniProt Q12884); assay: flow cytometry, HT-1080FAP clone 33 cells, biotinylated antibody at 8.0 ng/ml, streptavidin-FITC
[9] = molecular target: human fibroblast activation protein alpha (FAP), on the cell surface (HT-1080FAP clone 33, 293FAP I/2, MF-SH cells, tumor stromal fibroblasts) (human) (UniProt Q12884); assay: flow cytometry, HT-1080FAP clone 33 cells, biotinylated antibody at 40.0 ng/ml, streptavidin-FITC
[10] = molecular target: human fibroblast activation protein alpha (FAP), on the cell surface (HT-1080FAP clone 33, 293FAP I/2, MF-SH cells, tumor stromal fibroblasts) (human) (UniProt Q12884); assay: flow cytometry, HT-1080FAP clone 33 cells, biotinylated antibody at 200.0 ng/ml, streptavidin-FITC
[11] = molecular target: human fibroblast activation protein alpha (FAP), on the cell surface (HT-1080FAP clone 33, 293FAP I/2, MF-SH cells, tumor stromal fibroblasts) (human) (UniProt Q12884); assay: flow cytometry, HT-1080FAP clone 33 cells, biotinylated antibody at 1,000.0 ng/ml, streptavidin-FITC
[12] = molecular target: human fibroblast activation protein alpha (FAP), on the cell surface (HT-1080FAP clone 33, 293FAP I/2, MF-SH cells, tumor stromal fibroblasts) (human) (UniProt Q12884); assay: flow cytometry, HT-1080FAP clone 33 cells, biotinylated antibody at 5,000.0 ng/ml, streptavidin-FITC
[13] = molecular target: human fibroblast activation protein alpha (FAP), on the cell surface (HT-1080FAP clone 33, 293FAP I/2, MF-SH cells, tumor stromal fibroblasts) (human) (UniProt Q12884); assay: flow cytometry competition against 1 µg/ml biotinylated cF19 on HT-1080FAP clone 33 cells; competitor at 1.00 µg/ml
[14] = molecular target: human fibroblast activation protein alpha (FAP), on the cell surface (HT-1080FAP clone 33, 293FAP I/2, MF-SH cells, tumor stromal fibroblasts) (human) (UniProt Q12884); assay: flow cytometry competition against 1 µg/ml biotinylated cF19 on HT-1080FAP clone 33 cells; competitor at 3.16 µg/ml
[15] = molecular target: human fibroblast activation protein alpha (FAP), on the cell surface (HT-1080FAP clone 33, 293FAP I/2, MF-SH cells, tumor stromal fibroblasts) (human) (UniProt Q12884); assay: flow cytometry competition against 1 µg/ml biotinylated cF19 on HT-1080FAP clone 33 cells; competitor at 10.00 µg/ml
[16] = molecular target: human fibroblast activation protein alpha (FAP), on the cell surface (HT-1080FAP clone 33, 293FAP I/2, MF-SH cells, tumor stromal fibroblasts) (human) (UniProt Q12884); assay: flow cytometry competition against 1 µg/ml biotinylated cF19 on HT-1080FAP clone 33 cells; competitor at 31.66 µg/ml

Sequence of UniProt Q12884 (Q12884 whole entry): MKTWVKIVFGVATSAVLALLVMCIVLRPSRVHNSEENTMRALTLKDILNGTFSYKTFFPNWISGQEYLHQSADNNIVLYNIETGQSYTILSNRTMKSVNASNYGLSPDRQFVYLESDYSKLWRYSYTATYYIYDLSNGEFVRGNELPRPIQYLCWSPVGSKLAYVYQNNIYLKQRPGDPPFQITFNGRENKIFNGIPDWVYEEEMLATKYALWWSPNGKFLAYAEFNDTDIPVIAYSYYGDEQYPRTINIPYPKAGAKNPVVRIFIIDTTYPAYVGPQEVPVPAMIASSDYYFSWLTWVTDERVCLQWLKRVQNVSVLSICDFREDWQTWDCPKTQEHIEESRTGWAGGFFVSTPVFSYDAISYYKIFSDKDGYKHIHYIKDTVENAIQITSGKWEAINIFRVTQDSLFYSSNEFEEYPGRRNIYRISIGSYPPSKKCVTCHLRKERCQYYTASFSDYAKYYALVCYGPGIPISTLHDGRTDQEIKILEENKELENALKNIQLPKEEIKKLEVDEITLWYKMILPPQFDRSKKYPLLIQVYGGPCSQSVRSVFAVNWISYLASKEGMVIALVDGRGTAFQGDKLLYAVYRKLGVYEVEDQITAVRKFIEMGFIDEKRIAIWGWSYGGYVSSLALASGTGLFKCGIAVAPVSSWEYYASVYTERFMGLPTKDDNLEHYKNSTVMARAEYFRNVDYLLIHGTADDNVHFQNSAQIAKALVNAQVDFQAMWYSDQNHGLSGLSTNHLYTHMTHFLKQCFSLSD

Mean fluorescence intensity [1]: 0.6
Mean fluorescence intensity [2]: 0.12
Mean fluorescence intensity [3]: 0.12
Mean fluorescence intensity [4]: 0.12
Mean fluorescence intensity [5]: 0.12
Mean fluorescence intensity [6]: 0.12
Mean fluorescence intensity [7]: 0.3
Mean fluorescence intensity [8]: 0.2
Mean fluorescence intensity [9]: 0.2
Mean fluorescence intensity [10]: 0.2
Mean fluorescence intensity [11]: 0.2
Mean fluorescence intensity [12]: 0.2
Mean fluorescence concentration [13]: 9
Mean fluorescence concentration [14]: 11.3
Mean fluorescence concentration [15]: 9.8
Mean fluorescence concentration [16]: 10.3
Substance: hIgG1 (human immunoglobulin, IgG1 subclass), isotype control (antibody)
